# From patent US20200045945A1
# Values joined by “and” are separate entries in the source; they are usually repeats but may differ in a detail not shown here. Equal entries are not always repeated.
# Tests used:
# [1] = biological target: wild type (full-length, unmodified) porcine CD163 (pig) (UniProt Q2VL90); assay: cell-based or functional assay
# [2] = biological target: CD163 on macrophages of heterozygous pigs 627 and 634 (both the full-length and the ΔSRCR5 protein); assay: cell-based or functional assay
# [3] = biological target: ΔSRCR5 CD163 (porcine CD163 with the SRCR5 domain deleted) (pig) (UniProt Q2VL90); assay: cell-based or functional assay
# [4] = biological target: CD163 on macrophages of all six pigs 628, 633, 627, 634, 629, 630 (wild type, heterozygous and ΔSRCR5); assay: cell-based or functional assay
# [5] = biological target: CD163 on macrophages of all six pigs 628, 633, 627, 634, 629, 630 (wild type, heterozygous and ΔSRCR5); assay: flow cytometry on PMMs, isotype control staining of the six pigs
# [6] = biological target: CD163 on macrophages of all six pigs 628, 633, 627, 634, 629, 630 (wild type, heterozygous and ΔSRCR5); assay: flow cytometry on PAMs, isotype control staining of the six pigs
# [7] = biological target: ΔSRCR5 CD163 (porcine CD163 with the SRCR5 domain deleted) (pig) (UniProt Q2VL90); assay: flow cytometry on PAMs of pig 629 (ΔSRCR5)
# [8] = biological target: ΔSRCR5 CD163 (porcine CD163 with the SRCR5 domain deleted) (pig) (UniProt Q2VL90); assay: flow cytometry on PMMs of pig 629 (ΔSRCR5)
# [9] = biological target: CD163 on macrophages of heterozygous pigs 627 and 634 (both the full-length and the ΔSRCR5 protein); assay: flow cytometry on PMMs of pig 627 (heterozygous)
# [10] = biological target: ΔSRCR5 CD163 (porcine CD163 with the SRCR5 domain deleted) (pig) (UniProt Q2VL90); assay: flow cytometry on PMMs of pig 630 (ΔSRCR5)
# [11] = biological target: wild type (full-length, unmodified) porcine CD163 (pig) (UniProt Q2VL90); assay: flow cytometry on PAMs of pig 633 (wild type)
# [12] = biological target: wild type (full-length, unmodified) porcine CD163 (pig) (UniProt Q2VL90); assay: flow cytometry on PAMs of pig 628 (wild type)
# [13] = biological target: CD163 on macrophages of heterozygous pigs 627 and 634 (both the full-length and the ΔSRCR5 protein); assay: flow cytometry on PAMs of pig 634 (heterozygous)
# [14] = biological target: wild type (full-length, unmodified) porcine CD163 (pig) (UniProt Q2VL90); assay: flow cytometry on PMMs of pig 633 (wild type)
# [15] = biological target: CD163 on macrophages of heterozygous pigs 627 and 634 (both the full-length and the ΔSRCR5 protein); assay: flow cytometry on PAMs of pig 627 (heterozygous)
# [16] = biological target: wild type (full-length, unmodified) porcine CD163 (pig) (UniProt Q2VL90); assay: flow cytometry on PMMs of pig 628 (wild type)
# [17] = biological target: ΔSRCR5 CD163 (porcine CD163 with the SRCR5 domain deleted) (pig) (UniProt Q2VL90); assay: flow cytometry on PAMs of pig 630 (ΔSRCR5)
# [18] = biological target: CD163 on macrophages of heterozygous pigs 627 and 634 (both the full-length and the ΔSRCR5 protein); assay: flow cytometry on PMMs of pig 634 (heterozygous)
substance,measurement,setting,value
Alexa Fluor 488-labelled hemoglobin-haptoglobin complex (HbAF488-Hp) (from UniProt P69905 2-142; P68871 2-147; P00738 19-406) (ligand),"medians of green fluorescence, HbAF488-Hp uptake into PMMs by FACS, animal 628 (wild type)",[1],329
same,"medians of green fluorescence, HbAF488-Hp uptake into PMMs by FACS, animal 633 (wild type)",[1],305
same,"medians of green fluorescence, HbAF488-Hp uptake into PMMs by FACS, animal 627 (heterozygous)",[2],329
same,"medians of green fluorescence, HbAF488-Hp uptake into PMMs by FACS, animal 634 (heterozygous)",[2],366
same,"medians of green fluorescence, HbAF488-Hp uptake into PMMs by FACS, animal 629 (ΔSRCR5)",[3],340
same,"medians of green fluorescence, HbAF488-Hp uptake into PMMs by FACS, animal 630 (ΔSRCR5)",[3],405
hemoglobin-haptoglobin complex (Hb-Hp) (from UniProt P69905 2-142; P68871 2-147; P00738 19-406) (ligand),"HO-1 mRNA upregulation in PMMs after 24 h with Hb-Hp, RT-qPCR",[4],2 fold and 6 fold
"mouse IgG1 or IgG2b negative control (AbD Serotec, MCA928PE, MCA691F, or Sigma, F6397) (antibody)",median of fluorescence intensity,[5],1.88 to 3.79
same,median of fluorescence intensity,[6],2.13 to 3.84
"mouse anti-pig CD163 antibody, clone 2A10/11 (AbD Serotec, MCA2311PE)",median of CD163 fluorescence intensity,[7],17.9
same,median of CD163 fluorescence intensity,[8],18.8
same,median of CD163 fluorescence intensity,[9],18.3
same,median of CD163 fluorescence intensity,[10],17.2
same,median of CD163 fluorescence intensity,[11],22.7
same,median of CD163 fluorescence intensity,[12],35.9
same,median of CD163 fluorescence intensity,[13],24.4
same,median of CD163 fluorescence intensity,[14],16.7
same,median of CD163 fluorescence intensity,[15],26.4
same,median of CD163 fluorescence intensity,[16],23.3
same,median of CD163 fluorescence intensity,[17],26.7
same,median of CD163 fluorescence intensity,[18],16.5
